# Patent US20140348865A1, “[…] ON AN HIV-1 V1V2 SITE-OF-VULNERABILITY” (The United States of America, as represented by the …, priority 2011, published 2014)
# Key:
# [1] = biological target: BB539.2B13 (HIV-1)
# [2] = biological target: 1FD6 CAP45 scaffold N143D/N147D/N192D; assay: ELISA on His-captured supernatant
# [3] = biological target: 57128.vrc15
# [4] = biological target: ZM233.6
# [5] = biological target: ZM249.1
# [6] = biological target: 3337.V2.C6
# [7] = biological target: UG021.16
# [8] = biological target: ZM214.15
# [9] = biological target: NKU3006.ec1
# [10] = biological target: 3817.v2.c59
# [11] = biological target: UG024.2
# [12] = biological target: 231965.c1
# [13] = biological target: Env of HIV-1 strain A03349M1 (pseudovirus) (HIV-1)
# [14] = biological target: Env of HIV-1 strain X2088 (pseudovirus) (HIV-1)
# [15] = biological target: 3016.v5.c45
# [16] = biological target: ZM197.7
# [17] = biological target: SVA.MLV
# [18] = biological target: ZM215.8
# [19] = biological target: Env of HIV-1 strain 6405 (pseudovirus) (HIV-1)
# [20] = biological target: SIVmac251.30.SG3
# [21] = biological target: ZM53.12
# [22] = biological target: 3326.V4.C3
# [23] = biological target: ZM55.28a
# [24] = biological target: SO18.18 (HIV-1)
# [25] = biological target: 6644.V2.C33 (HIV-1)
# [26] = biological target: ZM109.4 (HIV-1)
# [27] = biological target: TV1.29 (HIV-1)
# [28] = biological target: CNE53 (HIV-1)
# [29] = biological target: Env of HIV-1 strain 6322 (pseudovirus) (HIV-1)
# [30] = biological target: ZM146.7 (HIV-1)
# [31] = biological target: CAP45.G3 (HIV-1)
# [32] = biological target: DU123.06 (HIV-1)
# [33] = biological target: CNE15 (HIV-1)
# [34] = biological target: 3637.V5.C3 (HIV-1)
# [35] = biological target: Env of HIV-1 strain 3873 (pseudovirus) (HIV-1)
# [36] = biological target: 3168.V4.C10 (HIV-1)
# [37] = biological target: ZM176.66 (HIV-1)
# [38] = biological target: 6785.V5.C14 (HIV-1)
# [39] = biological target: ZM197.7 (HIV-1)
# [40] = biological target: MW965.26 (HIV-1)
# [41] = biological target: TZBD.02 (HIV-1)
# [42] = biological target: ZM106.9 (HIV-1)
# [43] = biological target: Env of HIV-1 strain 6631 (pseudovirus) (HIV-1)
# [44] = biological target: ZM215.8 (HIV-1)
# [45] = biological target: Env of HIV-1 strain ZM135 (pseudovirus) (HIV-1)
# [46] = biological target: Env of HIV-1 strain 6471 (pseudovirus) (HIV-1)
# [47] = biological target: CNE40 (HIV-1)
# [48] = biological target: BR025.9 (HIV-1)
# [49] = biological target: CH117.4 (HIV-1)
# [50] = biological target: DU156.12 (HIV-1)
# [51] = biological target: ZM214.15 (HIV-1)
# [52] = biological target: CNE7 (HIV-1)
# [53] = biological target: CH181.12 (HIV-1)
# [54] = biological target: Env of HIV-1 strain CNE30 (pseudovirus) (HIV-1)
# [55] = biological target: CAP210.E8 (HIV-1)
# [56] = biological target: CNE31 (HIV-1)
# [57] = biological target: DU172.17 (HIV-1)
# [58] = biological target: 1FD6 ZM109 scaffold N130D; assay: ELISA
# [59] = biological target: 1FD6-ZM109 V1V2 scaffold; assay: ELISA
# [60] = biological target: 1FD6 ZM109 scaffold N160Q; assay: ELISA
# [61] = biological target: 1FD6 ZM109 scaffold N173D; assay: ELISA
# [62] = biological target: 1FD6 ZM109 scaffold N138D; assay: ELISA
# [63] = biological target: 1FD6 ZM109 scaffold N189D; assay: ELISA
# [64] = biological target: 1FD6 ZM109 scaffold N192D; assay: ELISA
substance,measurement,setting,value
monoclonal antibody PG9,neutralization IC80,[1],0.422 µg/mL
same,EC50,[2],0.1 µg/mL
same,neutralization IC50,[3],0.104 µg/mL
same,neutralization IC50,[4],< 0.023 µg/mL
same,neutralization IC50,[5],0.033 µg/mL
same,neutralization IC50,[6],> 50 µg/mL
same,neutralization IC50,[7],> 50 µg/mL
same,neutralization IC50,[8],> 50 µg/mL
same,neutralization IC50,[9],> 50 µg/mL
same,neutralization IC50,[10],0.007 µg/mL
same,neutralization IC50,[11],3.94 µg/mL
same,neutralization IC50,[12],1.51 µg/mL
same,neutralization IC50,[13],> 50 µg/mL
same,neutralization IC50,[14],> 50 µg/mL
same,neutralization IC50,[15],0.286 µg/mL
same,neutralization IC50,[16],0.414 µg/mL
same,neutralization IC50,[17],> 50 µg/mL
same,neutralization IC50,[18],< 0.023 µg/mL
same,neutralization IC50,[19],> 50 µg/mL
same,neutralization IC50,[20],> 50 µg/mL
same,neutralization IC50,[21],0.041 µg/mL
same,neutralization IC50,[22],< 0.023 µg/mL
same,neutralization IC50,[23],0.571 µg/mL
same,neutralization IC80,[24],0.227 µg/mL
same,neutralization IC80,[25],0.12 µg/mL
same,neutralization IC80,[26],2.64 µg/mL
same,neutralization IC80,[27],0.044 µg/mL
same,neutralization IC80,[28],0.809 µg/mL
same,neutralization IC80,[29],> 50 µg/mL
same,neutralization IC80,[30],6.78 µg/mL
same,neutralization IC80,[31],< 0.023 µg/mL
same,neutralization IC80,[32],0.477 µg/mL
same,neutralization IC80,[33],< 0.023 µg/mL
same,neutralization IC80,[34],> 50 µg/mL
same,neutralization IC80,[35],> 50 µg/mL
same,neutralization IC80,[36],0.657 µg/mL
same,neutralization IC80,[37],0.05 µg/mL
same,neutralization IC80,[38],0.094 µg/mL
same,neutralization IC80,[39],1.92 µg/mL
same,neutralization IC80,[40],49.9 µg/mL
same,neutralization IC80,[41],1.3 µg/mL
same,neutralization IC80,[42],6.58 µg/mL
same,neutralization IC80,[43],> 50 µg/mL
same,neutralization IC80,[44],0.228 µg/mL
same,neutralization IC80,[45],> 50 µg/mL
same,neutralization IC80,[46],> 50 µg/mL
same,neutralization IC80,[47],20 µg/mL
same,neutralization IC80,[48],0.215 µg/mL
same,neutralization IC80,[49],0.03 µg/mL
same,neutralization IC80,[50],0.143 µg/mL
same,neutralization IC80,[51],> 50 µg/mL
same,neutralization IC80,[52],4.5 µg/mL
same,neutralization IC80,[53],0.04 µg/mL
same,neutralization IC80,[54],> 50 µg/mL
same,neutralization IC80,[55],0.501 µg/mL
same,neutralization IC80,[56],> 50 µg/mL
same,neutralization IC80,[57],0.899 µg/mL
same,EC50,[58],0.4 µg/mL
same,EC50,[59],0.1 µg/mL
same,EC50,[60],> 50 µg/mL
same,EC50,[61],7 µg/mL
same,EC50,[62],0.2 µg/mL
same,EC50,[63],0.1 µg/mL
same,EC50,[64],0.1 µg/mL
monoclonal antibody PG16,neutralization IC80,[1],0.062 µg/mL
same,EC50,[2],15.1 µg/mL
same,neutralization IC50,[3],0.162 µg/mL
same,neutralization IC50,[4],< 0.023 µg/mL
same,neutralization IC50,[5],0.073 µg/mL
same,neutralization IC50,[6],> 50 µg/mL
same,neutralization IC50,[7],> 50 µg/mL
same,neutralization IC50,[8],> 50 µg/mL
same,neutralization IC50,[9],> 50 µg/mL
same,neutralization IC50,[10],0.006 µg/mL
same,neutralization IC50,[11],> 50 µg/mL
same,neutralization IC50,[12],4.72 µg/mL
same,neutralization IC50,[13],> 50 µg/mL
same,neutralization IC50,[14],> 50 µg/mL
same,neutralization IC50,[15],> 50 µg/mL
same,neutralization IC50,[16],0.65 µg/mL
same,neutralization IC50,[17],> 50 µg/mL
same,neutralization IC50,[18],> 50 µg/mL
same,neutralization IC50,[19],> 50 µg/mL
same,neutralization IC50,[20],> 50 µg/mL
same,neutralization IC50,[21],< 0.023 µg/mL
same,neutralization IC50,[22],< 0.023 µg/mL
same,neutralization IC50,[23],> 50 µg/mL
same,neutralization IC80,[24],0.136 µg/mL
same,neutralization IC80,[25],> 50 µg/mL
same,neutralization IC80,[26],> 50 µg/mL
same,neutralization IC80,[27],0.15 µg/mL
same,neutralization IC80,[28],> 50 µg/mL
same,neutralization IC80,[29],> 50 µg/mL
same,neutralization IC80,[30],> 50 µg/mL
same,neutralization IC80,[31],< 0.023 µg/mL
same,neutralization IC80,[32],0.163 µg/mL
same,neutralization IC80,[33],< 0.023 µg/mL
same,neutralization IC80,[34],> 50 µg/mL
same,neutralization IC80,[35],> 50 µg/mL
same,neutralization IC80,[36],0.515 µg/mL
same,neutralization IC80,[37],0.01 µg/mL
same,neutralization IC80,[38],< 0.023 µg/mL
same,neutralization IC80,[39],6.67 µg/mL
same,neutralization IC80,[40],> 50 µg/mL
same,neutralization IC80,[41],0.175 µg/mL
same,neutralization IC80,[42],> 50 µg/mL
same,neutralization IC80,[43],> 50 µg/mL
same,neutralization IC80,[44],> 50 µg/mL
same,neutralization IC80,[45],> 50 µg/mL
same,neutralization IC80,[46],> 50 µg/mL
same,neutralization IC80,[47],> 50 µg/mL
same,neutralization IC80,[48],0.049 µg/mL
same,neutralization IC80,[49],0.028 µg/mL
same,neutralization IC80,[50],< 0.023 µg/mL
same,neutralization IC80,[51],> 50 µg/mL
same,neutralization IC80,[52],1.91 µg/mL
same,neutralization IC80,[53],0.01 µg/mL
same,neutralization IC80,[54],> 50 µg/mL
same,neutralization IC80,[55],0.882 µg/mL
same,neutralization IC80,[56],> 50 µg/mL
same,neutralization IC80,[57],0.134 µg/mL
same,EC50,[58],1.5 µg/mL
same,EC50,[59],3.4 µg/mL
same,EC50,[60],> 50 µg/mL
same,EC50,[61],> 50 µg/mL
same,EC50,[62],4.4 µg/mL
same,EC50,[63],4 µg/mL
same,EC50,[64],2.5 µg/mL
